# Measured values taken from patent US20080032921A1.
# B1: … (Flu.PB2.135) (peptide)
# peptide: PVHFRNQVKIRRRVD
# modifications: not checked
# B2: … (Flu.PB2.205) (peptide)
# peptide: MVAYMLERELVRKTR
# modifications: not checked
# B3: … (Flu.PB2.250) (peptide)
# peptide: GGEVRNDDVDQSLII
# modifications: not checked
# B4: Flu.PB2.404 (peptide)
# peptide: AMVFSQEDCMIKAVR
# modifications: not checked
# B5: Flu.PB2.483 (peptide)
# peptide: VSKMGVDEYSSTERV
# modifications: not checked
# B6: Flu.PB2.496 (peptide)
# peptide: RVVVSIDRFLRVRDQ
# modifications: not checked
# B7: Flu.PB2.697 (peptide)
# peptide: FLILGKEDRRYGPAL
# modifications: not checked
# B8: Flu.NA.26 peptide … (peptide)
# peptide: IGNMISIWVSHSIHTG
# modifications: not checked
# B9: Flu.HA.163 (peptide)
# peptide: VVWLIKKNSTYPTIKR
# modifications: not checked
# B10: Flu.NA.110 peptide … (peptide)
# peptide: RTFFLTQGALLNDKHS
# modifications: not checked
# B11: Flu.NA.126 peptide … (peptide)
# peptide: NGTVKDRSPHRTLMS
# modifications: not checked
# B12: Flu.NA.183 peptide … (peptide)
# peptide: VAVLKYNGIITDTIKSW
# modifications: not checked
# B13: Flu.NA.289 peptide … (peptide)
# peptide: NLEYQIGYICSGVFG
# modifications: not checked
# B14: Flu.HA.210 (peptide)
# peptide: PTTYISVGTSTLNQRL
# modifications: not checked
# B15: Flu.HA.318 (peptide)
# peptide: CPKYVKSNRLVLATGL
# modifications: not checked
# What was measured:
# [1] = biological target: purified HLA-DR molecule DRB1*0101 (human); experiment: competition with 125I-labelled peptide for purified HLA
# [2] = biological target: purified HLA-DR molecule DRB1*0301 (human); experiment: as above
# [3] = biological target: purified HLA-DR molecule DRB1*0401 (human); experiment: as above
# [4] = biological target: purified HLA-DR molecule DRB1*0404 (human); experiment: as above
# [5] = biological target: purified HLA-DR molecule DRB1*0405 (human); experiment: as above
# [6] = biological target: purified HLA-DR molecule DRB1*1302 (human); experiment: as above
# [7] = biological target: purified HLA-DR DRB1*0101 (human); experiment: competition with 125I-labelled reference peptide, purified HLA
# [8] = biological target: purified HLA-DR DRB1*0301 (human); experiment: as above
# [9] = biological target: purified HLA-DR DRB1*0401 (human); experiment: as above
# [10] = biological target: purified HLA-DR DRB1*0404 (human); experiment: as above
# [11] = biological target: purified HLA-DR DRB1*0405 (human); experiment: as above
# [12] = biological target: purified HLA-DR DRB1*1302 (human); experiment: as above
# [13] = biological target: HLA-DR DRB1*0101 (human); experiment: competition with 125I-labelled reference peptide on purified HLA-DR
# [14] = biological target: HLA-DR DRB1*0401 (human); experiment: as above
# [15] = biological target: HLA-DR DRB1*1302 (human); experiment: as above
# [16] = biological target: HLA-DR DRB1*1501 (human); experiment: as above
# [17] = biological target: HLA-DR DRB4*0101 (human); experiment: as above
# [18] = biological target: HLA-DR DRB1*0101 (human); experiment: competition vs 125I-labeled peptide, purified HLA
# [19] = biological target: HLA-DR DRB1*0401 (human); experiment: competition vs 125I-labeled peptide, purified HLA
# [20] = biological target: HLA-DR DRB1*1302 (human); experiment: competition vs 125I-labeled peptide, purified HLA
# [21] = biological target: HLA-DR DRB1*1501 (human); experiment: competition vs 125I-labeled peptide, purified HLA
# [22] = biological target: HLA-DR DRB4*0101 (human); experiment: competition vs 125I-labeled peptide, purified HLA
# [23] = biological target: HLA-DR DRB1*0301 (human); experiment: competition vs 125I-labeled peptide, purified HLA
binder,measurement,setting,value
B1,IC50,[1],2970 nM
same,IC50,[2],458 nM
same,IC50,[3],1300 nM
same,IC50,[4],5980 nM
same,IC50,[5],6040 nM
same,IC50,[6],359 nM
B2,IC50,[1],97 nM
same,IC50,[2],878 nM
same,IC50,[3],166 nM
same,IC50,[4],499 nM
same,IC50,[5],5540 nM
same,IC50,[6],2080 nM
B3,IC50,[2],347 nM
same,IC50,[3],2160 nM
same,IC50,[4],458 nM
same,IC50,[6],2500 nM
B4,IC50,[7],11000 nM
same,IC50,[8],718 nM
same,IC50,[9],3280 nM
same,IC50,[10],336 nM
same,IC50,[11],6780 nM
same,IC50,[12],9200 nM
B5,IC50,[8],1020 nM
same,IC50,[12],1850 nM
B6,IC50,[7],1860 nM
same,IC50,[8],67 nM
same,IC50,[9],111 nM
same,IC50,[10],400 nM
same,IC50,[11],2050 nM
same,IC50,[12],8.1 nM
B7,IC50,[7],8390 nM
same,IC50,[8],565 nM
same,IC50,[9],1740 nM
same,IC50,[12],118 nM
B8,IC50,[13],1050 nM
same,IC50,[14],925 nM
same,IC50,[15],5950 nM
same,IC50,[16],81 nM
same,IC50,[17],817 nM
B9,IC50,[18],464 nM
same,IC50,[19],289 nM
same,IC50,[20],14 nM
same,IC50,[21],99 nM
same,IC50,[22],1660 nM
B10,IC50,[13],16 nM
same,IC50,[14],251 nM
same,IC50,[15],3200 nM
same,IC50,[16],790 nM
same,IC50,[17],2320 nM
B11,IC50,[13],581 nM
same,IC50,[14],17900 nM
same,IC50,[15],7930 nM
same,IC50,[16],267 nM
same,IC50,[17],8880 nM
B12,IC50,[13],3390 nM
same,IC50,[14],319 nM
same,IC50,[15],169 nM
same,IC50,[16],19 nM
same,IC50,[17],289 nM
B13,IC50,[13],1130 nM
same,IC50,[14],975 nM
same,IC50,[15],41 nM
same,IC50,[16],13 nM
same,IC50,[17],354 nM
B14,IC50,[18],190 nM
same,IC50,[19],59 nM
same,IC50,[20],957 nM
same,IC50,[21],1720 nM
same,IC50,[22],522 nM
B15,IC50,[18],2760 nM
same,IC50,[23],2920 nM
same,IC50,[19],868 nM
same,IC50,[20],48 nM
same,IC50,[21],230 nM
same,IC50,[22],287 nM
